Measurements as given in patent CN111662383A (ZHUHAI LIVZON MCAB BIOTECHNOLOGY CO LTD; DINGFU BIOTARGET …, dated 2020).
Where two headings read alike, the source gives them in different places.

T1: hB7H3-EGFP细胞 (HEK293 cells expressing human B7H3-EGFP) (human, UniProt Q5ZPR3 29-534)
T1 construct: not shown: enhanced green fluorescent protein EGFP, UniProt C5MKY7
T1 sequence (looked up): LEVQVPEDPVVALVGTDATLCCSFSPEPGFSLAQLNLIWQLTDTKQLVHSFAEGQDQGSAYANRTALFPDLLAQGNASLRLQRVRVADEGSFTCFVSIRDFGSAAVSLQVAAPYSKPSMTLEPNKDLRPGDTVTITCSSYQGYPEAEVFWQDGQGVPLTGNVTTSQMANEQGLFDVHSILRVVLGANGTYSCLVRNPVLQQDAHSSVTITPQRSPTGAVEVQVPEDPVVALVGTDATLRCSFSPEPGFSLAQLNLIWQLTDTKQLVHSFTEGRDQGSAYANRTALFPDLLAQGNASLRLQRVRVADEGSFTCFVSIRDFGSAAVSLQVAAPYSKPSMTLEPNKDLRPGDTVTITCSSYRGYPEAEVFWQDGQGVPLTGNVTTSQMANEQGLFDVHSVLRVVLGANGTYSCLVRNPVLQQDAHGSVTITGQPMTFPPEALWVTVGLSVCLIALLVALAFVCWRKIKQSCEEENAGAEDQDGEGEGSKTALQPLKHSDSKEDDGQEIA

T2: hB7H4细胞 (HEK293 cells expressing human B7H4-EGFP) (human, UniProt Q7Z7D3 25-282)
T2 construct: also called hB7H4-EGFP; not shown: enhanced green fluorescent protein EGFP, UniProt C5MKY7
T2 sequence (looked up): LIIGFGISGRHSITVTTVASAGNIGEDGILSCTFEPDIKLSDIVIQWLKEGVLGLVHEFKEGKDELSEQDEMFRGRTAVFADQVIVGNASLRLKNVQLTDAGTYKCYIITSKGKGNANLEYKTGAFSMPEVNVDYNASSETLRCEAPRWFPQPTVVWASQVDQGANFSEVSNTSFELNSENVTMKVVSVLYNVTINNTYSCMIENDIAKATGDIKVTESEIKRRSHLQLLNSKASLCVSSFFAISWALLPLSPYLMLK


Key:
[1] = target: T3, PD-L1 (in the mixed lymphocyte reaction of human dendritic cells and CD4+ T cells) (human, UniProt Q9NZQ7 19-290); assay: cell-based or functional assay
T3 sequence (Q9NZQ7 19-290 limits assumed): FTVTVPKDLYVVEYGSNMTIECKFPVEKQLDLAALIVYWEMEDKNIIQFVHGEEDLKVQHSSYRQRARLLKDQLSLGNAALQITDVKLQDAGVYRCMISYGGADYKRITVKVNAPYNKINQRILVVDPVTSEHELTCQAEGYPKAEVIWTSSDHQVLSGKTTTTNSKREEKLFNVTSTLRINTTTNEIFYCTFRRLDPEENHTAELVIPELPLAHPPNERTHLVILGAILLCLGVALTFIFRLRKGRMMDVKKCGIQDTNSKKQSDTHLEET

[2] = target: T3, PD-L1 (in the mixed lymphocyte reaction …); assay: cell-based or functional assay; remark: listed apart in the source
[3] = target: T4, 重组的人PD-L1-His (human, UniProt Q9NZQ7 19-238, limits assumed); assay: BLI as in Example 4, hPD-L1-His analyte
T4 construct: Analyte in the BLI assays; also called hPD-L1-His; hPD-L1; not shown: His tag
T4 sequence (Q9NZQ7 19-238 limits assumed): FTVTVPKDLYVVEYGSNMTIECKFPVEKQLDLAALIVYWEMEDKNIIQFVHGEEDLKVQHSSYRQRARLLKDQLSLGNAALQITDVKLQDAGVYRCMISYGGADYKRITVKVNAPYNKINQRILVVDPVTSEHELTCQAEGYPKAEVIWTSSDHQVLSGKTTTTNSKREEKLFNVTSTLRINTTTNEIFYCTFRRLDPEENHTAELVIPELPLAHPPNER

[4] = target: T4, 重组的人PD-L1-His; assay: BLI (Octet K2), antibody on AHC sensor, hPD-L1-His analyte
[5] = target: T5, hPD-L1-Fc (human, UniProt Q9NZQ7 19-238); assay: ELISA blocking assay, hPD-L1-Fc coated, competitor PD-1-Biotin 10μg/ml
T5 construct: range 1-238; The stated range 1-238 begins at residue 1 and so includes the native signal peptide; No linker is stated; also called hPD-L1-Fc融合蛋白
T5 sequence (Q9NZQ7 19-238 limits assumed, form in doubt): as the sequence (Q9NZQ7 19-238 limits assumed) above

[6] = target: T3, PD-L1 (in the mixed lymphocyte reaction …); assay: cell-based or functional assay; remark: listed apart in the source
[7] = target: T6, hPD-L1-EGFP细胞 (HEK293 cells expressing human PD-L1-EGFP) (human, UniProt Q9NZQ7 19-290); assay: FACS on PD-L1-EGFP cells
T6 construct: Fusion expressed on transfected HEK293 cells; junction between PD-L1 and EGFP not described; also called 细胞表面PD-L1; not shown: enhanced green fluorescent protein EGFP, UniProt C5MKY7
T6 sequence (Q9NZQ7 19-290): as the sequence (Q9NZQ7 19-290 limits assumed) above

[8] = target: T7, hPD-1-EGFP细胞 (HEK293 cells expressing human PD-1-EGFP) (human, UniProt Q15116 25-288); assay: FACS on transfected HEK293 cells
T7 construct: Fusion expressed on transfected HEK293 cells; not shown: enhanced green fluorescent protein EGFP, UniProt C5MKY7
T7 sequence (Q15116 25-288): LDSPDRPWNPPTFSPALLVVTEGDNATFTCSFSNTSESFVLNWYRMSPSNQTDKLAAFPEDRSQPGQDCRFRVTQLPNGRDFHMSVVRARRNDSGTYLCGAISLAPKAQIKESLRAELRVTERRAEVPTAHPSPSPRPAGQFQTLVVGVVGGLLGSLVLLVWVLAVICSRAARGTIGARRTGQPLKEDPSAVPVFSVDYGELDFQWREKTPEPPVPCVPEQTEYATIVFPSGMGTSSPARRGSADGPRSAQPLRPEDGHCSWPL

[9] = target: T1, hB7H3-EGFP细胞 (HEK293 cells expressing …); assay: FACS on transfected HEK293 cells
[10] = target: T2, hB7H4细胞 (HEK293 cells expressing human …); assay: FACS on transfected HEK293 cells
[11] = target: T8, mPD-L1细胞 (HEK293 cells expressing mouse PD-L1-EGFP) (mouse, UniProt Q9EP73 19-290); assay: FACS on transfected HEK293 cells
T8 construct: also called mPD-L1-EGFP; 小鼠PD-L1; not shown: enhanced green fluorescent protein EGFP, UniProt C5MKY7
T8 sequence (Q9EP73 19-290): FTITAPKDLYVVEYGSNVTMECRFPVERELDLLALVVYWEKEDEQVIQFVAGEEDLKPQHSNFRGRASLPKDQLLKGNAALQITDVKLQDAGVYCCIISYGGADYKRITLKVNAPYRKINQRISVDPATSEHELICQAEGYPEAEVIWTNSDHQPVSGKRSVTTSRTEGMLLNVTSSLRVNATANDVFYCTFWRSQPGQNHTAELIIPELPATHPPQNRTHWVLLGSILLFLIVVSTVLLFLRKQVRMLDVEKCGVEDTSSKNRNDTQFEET

[12] = target: T4, 重组的人PD-L1-His; assay: BLI (Octet K2), antibody on AMC sensor, hPD-L1-His analyte
[13] = target: T4, 重组的人PD-L1-His; assay: BLI as in Example 4, hPD-L1-His analyte; remark: listed apart in the source

| Binder | EC50 of IFN-γ secretion in mixed lymphocyte reaction (MLR) [2] [µg/mL] | Kd [4] [nM] | koff [4] [s⁻¹] | kon [4] [M⁻¹ s⁻¹] | IC50 [5] [µg/mL] | EC50 of IFN-γ secretion in mixed lymphocyte reaction (MLR) [6] [µg/mL] | EC50 [7] [µg/mL] | binding result [8] | binding result [9] | binding result [10] | binding result [11] | Kd [12] [nM] | koff [12] [s⁻¹] | kon [12] [M⁻¹ s⁻¹] | other results |
| --- | --- | --- | --- | --- | --- | --- | --- | --- | --- | --- | --- | --- | --- | --- | --- |
| 人源化抗体7A3 3-3 (antibody, V domains shown, Humanized; also called 7A3VLV3 + 7A3VHV3) VH: QVQLQESGPGLVKPSETLSLTCTVSGDSITSGYWNWIRKPPGNGLEYMGYISYTGSTYYNPSLKSRITITRDTSKNQYSLKLSSVTAADTAVYYCARFGLWHLPAALDYWGQGTLVTVSS VL: DIVLTQSPATLSLSPGERATLSCSAKSSISYMHWYQQKPGTSPKRWIYDTSKLASGVPARFSGSGSGTSYTLTISSLEPEDFAVYYCHQRSSYPFTFGQGTKVEIK | 0.0285 | 2.85 | 0.00128 | 449000 | 1.44 |  |  |  |  |  |  |  |  |  | EC50 of IFN-γ secretion in mixed lymphocyte reaction (MLR) [1]: 0.449 µg/mL; Kd [3]: 13.2 nM; koff [3]: 0.00547 s⁻¹; kon [3]: 415000 M⁻¹ s⁻¹ |
| 7A3 3-3ND (antibody, V domains shown, human IgG1 format as for 7A3 3-3; also called 7A3 3-3 with G44D in VH) VH: QVQLQESGPGLVKPSETLSLTCTVSGDSITSGYWNWIRKPPGNDLEYMGYISYTGSTYYNPSLKSRITITRDTSKNQYSLKLSSVTAADTAVYYCARFGLWHLPAALDYWGQGTLVTVSS VL: DIVLTQSPATLSLSPGERATLSCSAKSSISYMHWYQQKPGTSPKRWIYDTSKLASGVPARFSGSGSGTSYTLTISSLEPEDFAVYYCHQRSSYPFTFGQGTKVEIK | 0.576 |  |  |  |  |  |  |  |  |  |  |  |  |  | Kd [3]: 14.4 nM; koff [3]: 0.00631 s⁻¹; kon [3]: 438000 M⁻¹ s⁻¹ |
| 人源化抗体7A3 1-3 (antibody, V domains shown, Humanized; also called 7A3VLV1 + 7A3VHV3) VH: QVQLQESGPGLVKPSETLSLTCTVSGDSITSGYWNWIRKPPGNGLEYMGYISYTGSTYYNPSLKSRITITRDTSKNQYSLKLSSVTAADTAVYYCARFGLWHLPAALDYWGQGTLVTVSS VL: DIVLTQSPATLSLSPGERATLSCSAKSSISYMHWYQQKPGQAPRLLIYDTSKLASGVPARFSGSGSGTDFTLTISSLEPEDFAVYYCHQRSSYPFTFGQGTKVEIK |  | 23.6 | 0.0119 | 504000 | 1.82 |  |  |  |  |  |  |  |  |  | EC50 of IFN-γ secretion in mixed lymphocyte reaction (MLR) [1]: ~0.176 µg/mL |
| 7A3 3-3QG (antibody, V domains shown, human IgG1 format as for 7A3 3-3; also called 7A3 3-3 with N43Q in VH) VH: QVQLQESGPGLVKPSETLSLTCTVSGDSITSGYWNWIRKPPGQGLEYMGYISYTGSTYYNPSLKSRITITRDTSKNQYSLKLSSVTAADTAVYYCARFGLWHLPAALDYWGQGTLVTVSS VL: DIVLTQSPATLSLSPGERATLSCSAKSSISYMHWYQQKPGTSPKRWIYDTSKLASGVPARFSGSGSGTSYTLTISSLEPEDFAVYYCHQRSSYPFTFGQGTKVEIK | 1.05 |  |  |  |  |  |  |  |  |  |  |  |  |  |  |
| 抗体8G1 (antibody, V domains shown, Mouse antibody purified from hybridoma supernatant on protein A) VH: KVQLRQSGAELVKPGTSVKLSCKASGYTFTEYIIHWVKQRSGQGLEWIGWFYPGSGNIRYNEKFKDKATLTADKSSSTVYMELSRLTSEDSAVYFCARHEDKGAWFAYWGQGTLVTVSA VL: DIVLTQSPALLSASPGEKVTMTCSASSNVSYMYWYQQKPRSSPKPWIYLTSNLASGVPARFTGSGSGTSYSLTISSMEAEDGATYYCQQWSSNPLTFGAGTKLEVK |  |  |  |  |  | ~0.03 | 2.25 | no binding (tested: 10μg/ml) | no binding (tested: 10μg/ml) | no binding (tested: 10μg/ml) | no binding (tested: 10μg/ml) | 2.32 | 0.00117 | 504000 |  |
| 人源化抗体8G1 3-3 (antibody, V domains shown, Humanized; also called 8G1VLV3 + 8G1VHV3) VH: QVQLVQSGAEVKKPGASVKVSCKASGYTFTEYIIHWVKQAPGQGLEWIGWFYPGSGNIRYNEKFKDKATLTADKSSSTVYMELSSLRSEDTAVYFCARHEDKGAWFAYWGQGTLVTVSS VL: DIVLTQSPATLSLSPGERATLSCSASSNVSYMYWYQQKPGQSPKPWIYLTSNLASGVPARFTGSGSGTSYTLTISSLEPEDFAVYYCQQWSSNPLTFGQGTKVEIK |  | 0.0163 | 5.79e-06 | 355000 | 1.24 |  |  |  |  |  |  |  |  |  |  |
| 8G1 3-3NG (antibody, V domains shown, Glycosylation-site variant of humanized 8G1 3-3; human IgG1 format as for 8G1 3-3; also called 8G1 3-3 with N28 mutated in VL) VH: QVQLVQSGAEVKKPGASVKVSCKASGYTFTEYIIHWVKQAPGQGLEWIGWFYPGSGNIRYNEKFKDKATLTADKSSSTVYMELSSLRSEDTAVYFCARHEDKGAWFAYWGQGTLVTVSS VL: DIVLTQSPATLSLSPGERATLSCSASSQVSYMYWYQQKPGQSPKPWIYLTSNLASGVPARFTGSGSGTSYTLTISSLEPEDFAVYYCQQWSSNPLTFGQGTKVEIK |  |  |  |  |  |  |  |  |  |  |  |  |  |  | Kd [13]: 6.89 nM; koff [13]: 0.00174 s⁻¹; kon [13]: 252000 M⁻¹ s⁻¹ |
| 抗体5A5 (antibody, V domains shown, Mouse antibody purified from hybridoma supernatant on protein A) VH: EVQLQESGPSLVKPSQTLSLTCSVTGDSITSGYWNWIRKFPGNKLEYMGYISYTGSTYYNPSLKSRISITRDTSKNQYYLQLNSVTTEDTATYYCAKYGLWHLPAAMDYWGQGTSVTVSS VL: DIVLTQSPAIMSASPGEKVTMTCSASSSISYMHWYQQKPGTSPKRWIYDTSKLASGVPARFSGSGSGTSYSLTISSMEAEDAATYYCHQRSSYPFTFGSGTKLEIK |  |  |  |  |  | 0.104 | 1.33 | no binding (tested: 10μg/ml) | no binding (tested: 10μg/ml) | no binding (tested: 10μg/ml) | no binding (tested: 10μg/ml) | 5.75 | 0.00453 | 788000 |  |
| 抗体7A3 (antibody, V domains shown, Mouse antibody purified from hybridoma supernatant on protein A) VH: EVQLQESGPSLVKPSQTLSLTCSVTGDSITSGYWNWIRKFPGNDLEYMGYISYTGSTYYNPSLKSRISITRDTSKNQYYLQLNSVTTEDTATYYCARFGLWHLPAALDYWGQGTSVTVSS VL: DIVLTQSPAIMSASPGEKVTMTCSAKSSISYMHWYQQKPGTSPKRWIYDTSKLASGVPARFSGSGSGTSYSLTISSMEAEDAATYYCHQRSSYPFTFGSGTKLEIK |  |  |  |  |  | 0.0588 | 2.76 | no binding (tested: 10μg/ml) | no binding (tested: 10μg/ml) | no binding (tested: 10μg/ml) | no binding (tested: 10μg/ml) | 4.29 | 0.0036 | 840000 |  |
